Values of other authors as cited in patent US20040096894A1, “Crystal structures of P- selectin, P- and E-selectin complexes, and uses thereof” (priority 2000, published 2004).

Molecular target: T1, full-length neutrophil PSGL-1 (Homo sapiens, UniProt Q14242)
T1 construct: to full-length neutrophil PSGL-1; host or cells: neutrophils
T1 sequence (Q14242 42-412): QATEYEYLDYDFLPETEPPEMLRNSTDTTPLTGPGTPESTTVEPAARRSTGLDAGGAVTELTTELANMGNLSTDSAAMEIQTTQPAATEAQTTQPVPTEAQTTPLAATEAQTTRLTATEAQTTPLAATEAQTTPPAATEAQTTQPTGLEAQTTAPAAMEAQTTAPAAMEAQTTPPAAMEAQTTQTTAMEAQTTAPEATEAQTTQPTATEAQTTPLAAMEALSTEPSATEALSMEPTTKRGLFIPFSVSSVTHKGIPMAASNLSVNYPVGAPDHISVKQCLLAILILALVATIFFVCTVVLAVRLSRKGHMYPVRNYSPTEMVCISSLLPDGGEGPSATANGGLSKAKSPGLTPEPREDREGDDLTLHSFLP
Settings: previously determined values (Mehta et al., 1998); read-out: KD for binding to full-length neutrophil PSGL-1

B1: soluble P-selectin: Soluble P-selectin of the literature study (Mehta et al., 1998) (protein, UniProt P16109 42-771, looked up)
extracellular domain: WTYHYSTKAYSWNISRKYCQNRYTDLVAIQNKNEIDYLNKVLPYYSSYYWIGIRKNNKTWTWVGTKKALTNEAENWADNEPNNKRNNEDCVEIYIKSPSAPGKWNDEHCLKKKHALCYTASCQDMSCSKQGECLETIGNYTCSCYPGFYGPECEYVRECGELELPQHVLMNCSHPLGNFSFNSQCSFHCTDGYQVNGPSKLECLASGIWTNKPPQCLAAQCPPLKIPERGNMTCLHSAKAFQHQSSCSFSCEEGFALVGPEVVQCTASGVWTAPAPVCKAVQCQHLEAPSEGTMDCVHPLTAFAYGSSCKFECQPGYRVRGLDMLRCIDSGHWSAPLPTCEAISCEPLESPVHGSMDCSPSLRAFQYDTNCSFRCAEGFMLRGADIVRCDNLGQWTAPAPVCQALQCQDLPVPNEARVNCSHPFGAFRYQSVCSFTCNEGLLLVGASVLQCLATGNWNSVPPECQAIPCTPLLSPQNGTMTCVQPLGSSSYKSTCQFICDEGYSLSGPERLDCTRSGRWTDSPPMCEAIKCPELFAPEQGSLDCSDTRGEFNVGSTCHFSCDNGFKLEGPNNVECTTSGRWSATPPTCKGIASLPTPGVQCPALTTPGQGTMYCRHHPGTFGFNTTCYFGCNAGFTLIGDSTLSCRPSGQWTAVTPACRAVKCSELHVNKPIAMNCSNLWGNFSYGSICSFHCLEGQLLNGSAQTACQENGHWSTTVPTCQAGPLTIQEA
modifications: extracellular domain
- Kd: 322 nM
